The values below come from the supplement of paper PMC12338614.

First the molecules themselves.
B1: library; numbered along this chain (parent)
chain: MEVVDPQQLGMFTEGELMSVGMDTFIHRIDSTEVIYQPRRKRAKLIGKYLMGDLLGEGSYGKVKEVLDSETLCRRAVKILKKKKLRRIPNGEANVKKEIQLLRRLRHKNVIQLVDVLYNEEKQKMYMVMEYCVCGMQEMLDSVPEKRFPVCQAHGYFCQLIDGLEYLHSQGIVHKDIKPGNLLLTTGGTLKISDLGVAEALHPFAADDTCRTSQGSPAFQPPEIANGLDTFSGFKVDIWSAGVTLYNITTGLYPFEGDNIYKLFENIGKGSYAIPGDCGPPLSDLLKGMLEYEPAKRFSIRQIRQHSWFRKKHPPAEAPVPIPPSPDTKDRWRSMTVVPYLEDLHGADEDEDLFDIEDDIIYTQDFTVPGQVPEEEASHNGQRRGLPKAVCMNGTEAAQLSTKSRAEGRAPNPARKACSASSKIRRLSACKQQ

± gives the uncertainty stated by the source.

This data set covers variants of B1. In words: STK11 functional score (HeLa growth suppression), rescaled enrichment; synonymous median = 1, nonsense median = 0 (normalised score). The settings on record: with HeLa; variant type: missense. The procedure: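 Deep mutational scan (TileSeq/POPCode codon randomisation) of full-length codon-optimised STK11 cDNA integrated at a Bxb1 landing pad (AAVS1) in HeLa cells. Restoring functional STK11 suppresses HeLa proliferation. Variant frequencies were measured by NGS before and after about two weeks of growth. The error-corrected enrichment log-ratio was rescaled so that synonymous median = 1 and nonsense median = 0, scores above 1 were compressed, and codon-level and three biological replicate scores were combined; error is the bootstrapped standard error. Scale: synonymous median = 1, nonsense median = 0; below 0.5 = damaging.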
In the case of MEVVDPQQLGMFTEGELMSVGMDTFIHRIDSTEVIYQPRRKRAKLIGKYLMGDLLGEGSYGDVKEVLDSETLCRRAVKILKKKKLRRIPNGEANVKKEIQLLRRLRHKNVIQLVDVLYNEEKQKMYMVMEYCVCGMQEMLDSVPEKRFPVCQAHGYFCQLIDGLEYLHSQGIVHKDIKPGNLLLTTGGTLKISDLGVAEALHPFAADDTCRTSQGSPAFQPPEIANGLDTFSGFKVDIWSAGVTLYNITTGLYPFEGDNIYKLFENIGKGSYAIPGDCGPPLSDLLKGMLEYEPAKRFSIRQIRQHSWFRKKHPPAEAPVPIPPSPDTKDRWRSMTVVPYLEDLHGADEDEDLFDIEDDIIYTQDFTVPGQVPEEEASHNGQRRGLPKAVCMNGTEAAQLSTKSRAEGRAPNPARKACSASSKIRRLSACKQQ [K62D], the STK11 functional score is 1.61 ± 0.2.

Consider MEVVDPQQLGMFTEGELMSVGMDTFIHRIDSTEVIYQPRRKRAKLIGKYLMGDLLGEGSYGCVKEVLDSETLCRRAVKILKKKKLRRIPNGEANVKKEIQLLRRLRHKNVIQLVDVLYNEEKQKMYMVMEYCVCGMQEMLDSVPEKRFPVCQAHGYFCQLIDGLEYLHSQGIVHKDIKPGNLLLTTGGTLKISDLGVAEALHPFAADDTCRTSQGSPAFQPPEIANGLDTFSGFKVDIWSAGVTLYNITTGLYPFEGDNIYKLFENIGKGSYAIPGDCGPPLSDLLKGMLEYEPAKRFSIRQIRQHSWFRKKHPPAEAPVPIPPSPDTKDRWRSMTVVPYLEDLHGADEDEDLFDIEDDIIYTQDFTVPGQVPEEEASHNGQRRGLPKAVCMNGTEAAQLSTKSRAEGRAPNPARKACSASSKIRRLSACKQQ [K62C], for which the STK11 functional score turned out to be 1.4 ± 0.35.

Regarding MEVVDPQQLGMFTEGELMSVGMDTFIHRIDSTEVIYQPRRKRAKLIGKYLMGDLLGEGSYGAVKEVLDSETLCRRAVKILKKKKLRRIPNGEANVKKEIQLLRRLRHKNVIQLVDVLYNEEKQKMYMVMEYCVCGMQEMLDSVPEKRFPVCQAHGYFCQLIDGLEYLHSQGIVHKDIKPGNLLLTTGGTLKISDLGVAEALHPFAADDTCRTSQGSPAFQPPEIANGLDTFSGFKVDIWSAGVTLYNITTGLYPFEGDNIYKLFENIGKGSYAIPGDCGPPLSDLLKGMLEYEPAKRFSIRQIRQHSWFRKKHPPAEAPVPIPPSPDTKDRWRSMTVVPYLEDLHGADEDEDLFDIEDDIIYTQDFTVPGQVPEEEASHNGQRRGLPKAVCMNGTEAAQLSTKSRAEGRAPNPARKACSASSKIRRLSACKQQ [K62A], the STK11 functional score is 1.7 ± 0.31.

Consider MEVVDPQQLGMFTEGELMSVGMDTFIHRIDSTEVIYQPRRKRAKLIGKYLMGDLLGEGSYGGVKEVLDSETLCRRAVKILKKKKLRRIPNGEANVKKEIQLLRRLRHKNVIQLVDVLYNEEKQKMYMVMEYCVCGMQEMLDSVPEKRFPVCQAHGYFCQLIDGLEYLHSQGIVHKDIKPGNLLLTTGGTLKISDLGVAEALHPFAADDTCRTSQGSPAFQPPEIANGLDTFSGFKVDIWSAGVTLYNITTGLYPFEGDNIYKLFENIGKGSYAIPGDCGPPLSDLLKGMLEYEPAKRFSIRQIRQHSWFRKKHPPAEAPVPIPPSPDTKDRWRSMTVVPYLEDLHGADEDEDLFDIEDDIIYTQDFTVPGQVPEEEASHNGQRRGLPKAVCMNGTEAAQLSTKSRAEGRAPNPARKACSASSKIRRLSACKQQ [K62G], for which the STK11 functional score is 1.23 ± 0.67.

For the variant MEVVDPQQLGMFTEGELMSVGMDTFIHRIDSTEVIYQPRRKRAKLIGKYLMGDLLGEGSYVKVKEVLDSETLCRRAVKILKKKKLRRIPNGEANVKKEIQLLRRLRHKNVIQLVDVLYNEEKQKMYMVMEYCVCGMQEMLDSVPEKRFPVCQAHGYFCQLIDGLEYLHSQGIVHKDIKPGNLLLTTGGTLKISDLGVAEALHPFAADDTCRTSQGSPAFQPPEIANGLDTFSGFKVDIWSAGVTLYNITTGLYPFEGDNIYKLFENIGKGSYAIPGDCGPPLSDLLKGMLEYEPAKRFSIRQIRQHSWFRKKHPPAEAPVPIPPSPDTKDRWRSMTVVPYLEDLHGADEDEDLFDIEDDIIYTQDFTVPGQVPEEEASHNGQRRGLPKAVCMNGTEAAQLSTKSRAEGRAPNPARKACSASSKIRRLSACKQQ [G61V], the STK11 functional score stood at 0.688 ± 0.096.

For MEVVDPQQLGMFTEGELMSVGMDTFIHRIDSTEVIYQPRRKRAKLIGKYLMGDLLGEGSYQKVKEVLDSETLCRRAVKILKKKKLRRIPNGEANVKKEIQLLRRLRHKNVIQLVDVLYNEEKQKMYMVMEYCVCGMQEMLDSVPEKRFPVCQAHGYFCQLIDGLEYLHSQGIVHKDIKPGNLLLTTGGTLKISDLGVAEALHPFAADDTCRTSQGSPAFQPPEIANGLDTFSGFKVDIWSAGVTLYNITTGLYPFEGDNIYKLFENIGKGSYAIPGDCGPPLSDLLKGMLEYEPAKRFSIRQIRQHSWFRKKHPPAEAPVPIPPSPDTKDRWRSMTVVPYLEDLHGADEDEDLFDIEDDIIYTQDFTVPGQVPEEEASHNGQRRGLPKAVCMNGTEAAQLSTKSRAEGRAPNPARKACSASSKIRRLSACKQQ [G61Q], the STK11 functional score stood at 0.913 ± 0.41.

On to MEVVDPQQLGMFTEGELMSVGMDTFIHRIDSTEVIYQPRRKRAKLIGKYLMGDLLGEGSYMKVKEVLDSETLCRRAVKILKKKKLRRIPNGEANVKKEIQLLRRLRHKNVIQLVDVLYNEEKQKMYMVMEYCVCGMQEMLDSVPEKRFPVCQAHGYFCQLIDGLEYLHSQGIVHKDIKPGNLLLTTGGTLKISDLGVAEALHPFAADDTCRTSQGSPAFQPPEIANGLDTFSGFKVDIWSAGVTLYNITTGLYPFEGDNIYKLFENIGKGSYAIPGDCGPPLSDLLKGMLEYEPAKRFSIRQIRQHSWFRKKHPPAEAPVPIPPSPDTKDRWRSMTVVPYLEDLHGADEDEDLFDIEDDIIYTQDFTVPGQVPEEEASHNGQRRGLPKAVCMNGTEAAQLSTKSRAEGRAPNPARKACSASSKIRRLSACKQQ [G61M], for which the STK11 functional score was found to be 0.0916 ± 0.085.

Consider MEVVDPQQLGMFTEGELMSVGMDTFIHRIDSTEVIYQPRRKRAKLIGKYLMGDLLGEGSYHKVKEVLDSETLCRRAVKILKKKKLRRIPNGEANVKKEIQLLRRLRHKNVIQLVDVLYNEEKQKMYMVMEYCVCGMQEMLDSVPEKRFPVCQAHGYFCQLIDGLEYLHSQGIVHKDIKPGNLLLTTGGTLKISDLGVAEALHPFAADDTCRTSQGSPAFQPPEIANGLDTFSGFKVDIWSAGVTLYNITTGLYPFEGDNIYKLFENIGKGSYAIPGDCGPPLSDLLKGMLEYEPAKRFSIRQIRQHSWFRKKHPPAEAPVPIPPSPDTKDRWRSMTVVPYLEDLHGADEDEDLFDIEDDIIYTQDFTVPGQVPEEEASHNGQRRGLPKAVCMNGTEAAQLSTKSRAEGRAPNPARKACSASSKIRRLSACKQQ [G61H], for which the STK11 functional score was 1.41 ± 0.35.

As to MEVVDPQQLGMFTEGELMSVGMDTFIHRIDSTEVIYQPRRKRAKLIGKYLMGDLLGEGSYWKVKEVLDSETLCRRAVKILKKKKLRRIPNGEANVKKEIQLLRRLRHKNVIQLVDVLYNEEKQKMYMVMEYCVCGMQEMLDSVPEKRFPVCQAHGYFCQLIDGLEYLHSQGIVHKDIKPGNLLLTTGGTLKISDLGVAEALHPFAADDTCRTSQGSPAFQPPEIANGLDTFSGFKVDIWSAGVTLYNITTGLYPFEGDNIYKLFENIGKGSYAIPGDCGPPLSDLLKGMLEYEPAKRFSIRQIRQHSWFRKKHPPAEAPVPIPPSPDTKDRWRSMTVVPYLEDLHGADEDEDLFDIEDDIIYTQDFTVPGQVPEEEASHNGQRRGLPKAVCMNGTEAAQLSTKSRAEGRAPNPARKACSASSKIRRLSACKQQ [G61W], the STK11 functional score came out at 0.248 ± 0.097.

As for MEVVDPQQLGMFTEGELMSVGMDTFIHRIDSTEVIYQPRRKRAKLIGKYLMGDLLGEGSYSKVKEVLDSETLCRRAVKILKKKKLRRIPNGEANVKKEIQLLRRLRHKNVIQLVDVLYNEEKQKMYMVMEYCVCGMQEMLDSVPEKRFPVCQAHGYFCQLIDGLEYLHSQGIVHKDIKPGNLLLTTGGTLKISDLGVAEALHPFAADDTCRTSQGSPAFQPPEIANGLDTFSGFKVDIWSAGVTLYNITTGLYPFEGDNIYKLFENIGKGSYAIPGDCGPPLSDLLKGMLEYEPAKRFSIRQIRQHSWFRKKHPPAEAPVPIPPSPDTKDRWRSMTVVPYLEDLHGADEDEDLFDIEDDIIYTQDFTVPGQVPEEEASHNGQRRGLPKAVCMNGTEAAQLSTKSRAEGRAPNPARKACSASSKIRRLSACKQQ [G61S], the STK11 functional score is 0.916 ± 0.13.

For MEVVDPQQLGMFTEGELMSVGMDTFIHRIDSTEVIYQPRRKRAKLIGKYLMGDLLGEGSYRKVKEVLDSETLCRRAVKILKKKKLRRIPNGEANVKKEIQLLRRLRHKNVIQLVDVLYNEEKQKMYMVMEYCVCGMQEMLDSVPEKRFPVCQAHGYFCQLIDGLEYLHSQGIVHKDIKPGNLLLTTGGTLKISDLGVAEALHPFAADDTCRTSQGSPAFQPPEIANGLDTFSGFKVDIWSAGVTLYNITTGLYPFEGDNIYKLFENIGKGSYAIPGDCGPPLSDLLKGMLEYEPAKRFSIRQIRQHSWFRKKHPPAEAPVPIPPSPDTKDRWRSMTVVPYLEDLHGADEDEDLFDIEDDIIYTQDFTVPGQVPEEEASHNGQRRGLPKAVCMNGTEAAQLSTKSRAEGRAPNPARKACSASSKIRRLSACKQQ [G61R], the STK11 functional score worked out at 0.216 ± 0.14.

For MEVVDPQQLGMFTEGELMSVGMDTFIHRIDSTEVIYQPRRKRAKLIGKYLMGDLLGEGSYLKVKEVLDSETLCRRAVKILKKKKLRRIPNGEANVKKEIQLLRRLRHKNVIQLVDVLYNEEKQKMYMVMEYCVCGMQEMLDSVPEKRFPVCQAHGYFCQLIDGLEYLHSQGIVHKDIKPGNLLLTTGGTLKISDLGVAEALHPFAADDTCRTSQGSPAFQPPEIANGLDTFSGFKVDIWSAGVTLYNITTGLYPFEGDNIYKLFENIGKGSYAIPGDCGPPLSDLLKGMLEYEPAKRFSIRQIRQHSWFRKKHPPAEAPVPIPPSPDTKDRWRSMTVVPYLEDLHGADEDEDLFDIEDDIIYTQDFTVPGQVPEEEASHNGQRRGLPKAVCMNGTEAAQLSTKSRAEGRAPNPARKACSASSKIRRLSACKQQ [G61L], the STK11 functional score was 0.588 ± 0.27.

For MEVVDPQQLGMFTEGELMSVGMDTFIHRIDSTEVIYQPRRKRAKLIGKYLMGDLLGEGSYYKVKEVLDSETLCRRAVKILKKKKLRRIPNGEANVKKEIQLLRRLRHKNVIQLVDVLYNEEKQKMYMVMEYCVCGMQEMLDSVPEKRFPVCQAHGYFCQLIDGLEYLHSQGIVHKDIKPGNLLLTTGGTLKISDLGVAEALHPFAADDTCRTSQGSPAFQPPEIANGLDTFSGFKVDIWSAGVTLYNITTGLYPFEGDNIYKLFENIGKGSYAIPGDCGPPLSDLLKGMLEYEPAKRFSIRQIRQHSWFRKKHPPAEAPVPIPPSPDTKDRWRSMTVVPYLEDLHGADEDEDLFDIEDDIIYTQDFTVPGQVPEEEASHNGQRRGLPKAVCMNGTEAAQLSTKSRAEGRAPNPARKACSASSKIRRLSACKQQ [G61Y], the STK11 functional score is 0.11 ± 0.086.

As to MEVVDPQQLGMFTEGELMSVGMDTFIHRIDSTEVIYQPRRKRAKLIGKYLMGDLLGEGSYPKVKEVLDSETLCRRAVKILKKKKLRRIPNGEANVKKEIQLLRRLRHKNVIQLVDVLYNEEKQKMYMVMEYCVCGMQEMLDSVPEKRFPVCQAHGYFCQLIDGLEYLHSQGIVHKDIKPGNLLLTTGGTLKISDLGVAEALHPFAADDTCRTSQGSPAFQPPEIANGLDTFSGFKVDIWSAGVTLYNITTGLYPFEGDNIYKLFENIGKGSYAIPGDCGPPLSDLLKGMLEYEPAKRFSIRQIRQHSWFRKKHPPAEAPVPIPPSPDTKDRWRSMTVVPYLEDLHGADEDEDLFDIEDDIIYTQDFTVPGQVPEEEASHNGQRRGLPKAVCMNGTEAAQLSTKSRAEGRAPNPARKACSASSKIRRLSACKQQ [G61P], the STK11 functional score turned out to be 0.916 ± 0.26.
